Laboratory results reported in the nanobody polyreactivity screen of Harvey et al. (2022).

Assay: yeast display, Sf9 membrane polyspecificity reagent, FACS + sequencing; frameworks hold sequencing errors
Method in brief: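 Nanobodies from a synthetic yeast display library (Saccharomyces cerevisiae BJ5465), induced 36–48 hours with galactose, were stained 1 hour at 4 °C with 10% biotinylated, detergent-solubilized Sf9 membrane reagent, enriched on streptavidin microbeads, then FACS-sorted. Anti-HA (expression) and streptavidin (reagent binding) fluorescence set low and high (top ~1%) gates. Polyreactivity labels come from the gate of origin. Genes were colony-PCR amplified, MiSeq 2 × 250 sequenced and filtered by CDR length.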

In the case of “QVQLVESGGGLVQAGGSLRLSCAASGSIFGLYAMGWYRQAPGKERELVAAINQSGGSTSYADSVKGRFTISRDNAKNTVYLQMNSLKPEDNAVYYCNRVRLNTEGFDYWGQGTQVTVSS”, the “polyreactivity (PSR sort gate)” value is reported as “low polyreactivity”.
For “QVQLVESGGGLVQAGGSLRLSCAASGSIFGLYAMGWYRQAPGKERELVAAITVSGGSTYYADSVKGRFTISRDNAKNTVYLQMNSLKPEDTAVYYCAARAGWPLYQYYYWGQGTQVTVSS”, the “polyreactivity (PSR sort gate)” value was “high polyreactivity”.
With “QVQLVESGGGLVQAGGSLRLSCAASGSIFGLYAMGWYRQAPGKERELVAGITYSGGSTYYADSVKGRFTISRDNAKNTVYLQLNSLKPEDTAVYYCNTRYWRGWYAYYYWGQGTQVTVSS” the “polyreactivity (PSR sort gate)” value was “high polyreactivity”.
With “QVQLVESGGGLVQAGGSLRLSCAASGSIFGNNAMGWYRKAPGKERELVAAISSGGSTKYADSVKGRFTISRDNAKNTVYLQMNSLKPEDTAVYYCAKDSWSRAYSWATRVHWRYDYWGQGTQVTVSS” the “polyreactivity (PSR sort gate)” value was “low polyreactivity”.
For “QVQLVESGGGLVQAGGSLRLSCAASGSIFGNYAMGWYRQAPGKERELVAGISKSGGRTYYADSVKGRFTISRDNAKITVYLQMNRLKPEDTAVYYCNALVTRYQSLDRLGDYWGQGTQVTVSS”, the “polyreactivity (PSR sort gate)” value was “high polyreactivity”.
With “QVQLVESGGGLVQAGGSLRLSCAASGSIFGPNAMGWYRQAPGKERELVAAITSGSSTKYADSVKGRFTISRDNAKNPVYLQMNSLKPEDTAVYYCAASGTTTWKYGYWGQGTQVTVSS” the “polyreactivity (PSR sort gate)” value was “low polyreactivity”.
For “QVQLVESGGGLVQAGGSLRLSCAASGSIFGPYAMGWYRQAHGKERELVAAITISGGSTYYADSVKRRFTISRDNAKNTVYLQINSLKPEDTAVYYCAADYWVDYEYDYYWEYNYWGQGSQVTVSS”, the “polyreactivity (PSR sort gate)” value was “high polyreactivity”.
In the case of “QVQLVESGGGLVQAGGSLRLSCAASGSIFGPYAMGWYRQAPGKERELVAAITWSGDSTYYADSVKGRFTISRDNAKNTVYLQMNSLKTEDTAVYYCAAETFIWGQGTQVTVSS”, the “polyreactivity (PSR sort gate)” value is reported as “low polyreactivity”.
With “QVQLVESGGGLVQAGGSLRLSCAASGSIFGPYAMGWYRQAPGKERELVAAITWTGGRTYYADSVKGRFTISRDNAKNTVYLQMISLNPEDTAVYYCAADYSPSTWYLYYTLFYYWGQGTQVTVSS” the “polyreactivity (PSR sort gate)” value was “low polyreactivity”.
With “QVQLVESGGGLVQAGGSLRLSCAASGSIFGPYAMGWYRQAPGKERELVAGITRSVGSTYYADSVKGRFTISRDNAKNTVFLQMNSLKPEDTAVYYCNAKWLYSRWAGYDYWGQGTQVTVSS” the “polyreactivity (PSR sort gate)” value was “low polyreactivity”.
For “QVQLVESGGGLVQAGGSLRLSCAASGSIFGPYAMVWYRQAPGKERELVAAISSRGSSTYYADSVKGRFTISRDNAKNTVYLQMNSLKPEDTAVYYCAALYYVYGYDYWGQGTQVTVSS”, the “polyreactivity (PSR sort gate)” value was “high polyreactivity”.
With “QVQLVESGGGLVQAGGSLRLSCAASGSIFGQYVMGWYRQAPGKERELVAAITRRGGTTYYADSVKGRFTISRDNAKNTVYLQMNSLKPEDTAVYYCAARVRVPQTARLHEYWGQGTQVTVSS” the “polyreactivity (PSR sort gate)” value was “high polyreactivity”.
For “QVQLVESGGGLVQAGGSLRLSCAASGSIFGRNAMGSSRQAPGKERELVAAITWSGDSTYYADSVKGRFTISRDNAKNTVYLLMNSLKPEDTAVYYCAAGTATDVASIGATKDYDYWGQGTQVTVSS”, the “polyreactivity (PSR sort gate)” value was “low polyreactivity”.
With “QVQLVESGGGLVQAGGSLRLSCAASGSIFGRNAMGWYRQAPGKEREFVATITSRGGRTYYADSVKGRFTISRDNAKNTVYLQMNSLKPEDTAVYYCAADTYISTLKKYRLGDYWGQGTQVTVSS” the “polyreactivity (PSR sort gate)” value was “low polyreactivity”.
In the case of “QVQLVESGGGLVQAGGSLRLSCAASGSIFGRNAMGWYRQAPGKERELVAAINSGGSTNYADSVKGRFTISRDNAKNTVYLQMNSLKPEDTAVYYCAARTYSSGRYYGYVAFYYWGQGTQVTVSS”, the “polyreactivity (PSR sort gate)” value is reported as “high polyreactivity”.
For “QVQLVESGGGLVQAGGSLRLSCAASGSIFGRNAMGWYRQAPGKERELVAVISKRSGNTYYADSVKGRFTISRDNAKNTVYLQLNSLKPEDTAVYYCNAVDQKLLRYDYWGQGTQVTVSS”, the “polyreactivity (PSR sort gate)” value was “high polyreactivity”.
In the case of “QVQLVESGGGLVQAGGSLRLSCAASGSIFGRNAMGWYRQEPGKERELVARISYIGGSTYYADSVKGRFTISRDNAKNTVYLQMNSLKPEDTAVYYCAKRYGFRYKRMDYWGQGTQVTVSS”, the “polyreactivity (PSR sort gate)” value is reported as “low polyreactivity”.
In the case of “QVQLVESGGGLVQAGGSLRLSCAASGSIFGRNVMGWYRQAPGKERELVARITRGGSTNYADSVKGRFTISRDNAKNTVYLQMNRLQPEDTAVYYCAAGARQYRGVPDRYGYWGQGTQVTVSS”, the “polyreactivity (PSR sort gate)” value is reported as “low polyreactivity”.
With “QVQLVESGGGLVQAGGSLRLSCAASGSIFGRYAMGLYRQAPGKERELVATISRTGGSTNYADSVKGRFTISRDNAKNTVSLQMNSLKPEDTAVYYCNAASVYANYYTYVDYYTEGFYYWGQGTQVTVSS” the “polyreactivity (PSR sort gate)” value was “low polyreactivity”.
With “QVQLVESGGGLVQAGGSLRLSCAASGSIFGRYAMGWYRQAPGKERELVAAISRTGVSTYYADSVKGRFTISRDNAKNTVYLQMNSLKPEDTAVYYCNAVRLSWQNTYYYWGQGTQVTVSS” the “polyreactivity (PSR sort gate)” value was “high polyreactivity”.
With “QVQLVESGGGLVQAGGSLRLSCAASGSIFGRYAMGWYRQAPGKERELVAAISWNGGSTYYADSVKGRFTISRDNAKNTVYLQMNILKPEDTAVYYCAADSGYSGYYYWGQGTQVTVSS” the “polyreactivity (PSR sort gate)” value was “high polyreactivity”.
In the case of “QVQLVESGGGLVQAGGSLRLSCAASGSIFGRYAMGWYRQAPGKERELVAAITRSGVSTYYADSVKGRFTISGDYAKNTVYLQMNSLKPEETAVYYCNAYYRIRSSPYGYYYWGEGTQVTVSS”, the “polyreactivity (PSR sort gate)” value is reported as “high polyreactivity”.
With “QVQLVESGGGLVQAGGSLRLSCAASGSIFGRYGAIGWYRQAPGKERELVAAINRSGGITYYADSVKGRFTISRDNAKNTVYLQMNSLKPEDTAVYYFNADAYYYSTSPRGAFDWPYDYWGQGTQVNVSS” the “polyreactivity (PSR sort gate)” value was “low polyreactivity”.
With “QVQLVESGGGLVQAGGSLRLSCAASGSIFGRYTMGWYRQAPGKERELVARIRSGGTTYYADSVKGRFTISRDNAKNTVYLQMNSLKPEDTAVYYCAAGRDARDYYSWGQGTQVTVSS” the “polyreactivity (PSR sort gate)” value was “high polyreactivity”.
With “QVQLVESGGGLVQAGGSLRLSCAASGSIFGRYVKGWYRQAPGKERELVATISSGGSTYYADSVKGRFTISRDNAKNTVYFQMISLKPEDTAVYYCAASYSRFVDWIGDPGYDYWGQGTQVTVSS” the “polyreactivity (PSR sort gate)” value was “low polyreactivity”.
For “QVQLVESGGGLVQAGGSLRLSCAASGSIFGRYVKGWYRQAPGKERELVATISSGGSTYYADSVKGRFTISRDNAKNTVYLQMNSLKPEDTAVYYCAASYSRFVDWIGDPGYDYWGQGTQVTVSS”, the “polyreactivity (PSR sort gate)” value was “low polyreactivity”.
For “QVQLVESGGGLVQAGGSLRLSCAASGSIFGRYVMGWYRQAPGKEREFVAAITYSGSSTYYADSVKGRFTISRDNAKNTVYLQMNSLKPEDTAVYYCNTYPRSFYWMGYWGQGTQVTVSS”, the “polyreactivity (PSR sort gate)” value was “high polyreactivity”.
With “QVQLVESGGGLVQAGGSLRLSCAASGSIFGSYAKGCYIQAPGKERELVAAITRAGSTNYADSVKGRFTISRDNGKNTVYLQMNSLKPEDTAVYYCNATGKSTYVLSPVPGAYDYWGQGTQVTVSS” the “polyreactivity (PSR sort gate)” value was “low polyreactivity”.
With “QVQLVESGGGLVQAGGSLRLSCAASGSIFGSYAMGWYRQAPGKEMELVAAISGSGGRTYYADSVKGRFTISRDNAKNTVYLKMNSLKPEDTAVYYCSAAYPRVTYKYGYYWGQGTQVTVSS” the “polyreactivity (PSR sort gate)” value was “high polyreactivity”.
In the case of “QVQLVESGGGLVQAGGSLRLSCAASGSIFGSYAMGWYRQAPGKERALVAAMSRSGITYYADSVKGRFTISRDNAKNTVYLQMNSLKPEDTAVYYCNADVSWWGYHYDYWGQGTQVTVLS”, the “polyreactivity (PSR sort gate)” value is reported as “high polyreactivity”.
For “QVQLVESGGGLVQAGGSLRLSCAASGSIFGSYAMGWYRQAPGKERELVAAIRWRGGSTYYADSVKGRFTISRDNAKNTVYLQMNSLKPEDTAVYYCNAVTHYPVWVSGVGYDYWGQGTQVTVSS”, the “polyreactivity (PSR sort gate)” value was “high polyreactivity”.
In the case of “QVQLVESGGGLVQAGGSLRLSCAASGSIFGSYAMGWYRQAPGKERELVAAISYRGGRTYYADSVKGRFTISRDNAKNSVYLQMNSLKPEDTAVYYCNARARNSPPYDYWGQGTQVTVSS”, the “polyreactivity (PSR sort gate)” value is reported as “high polyreactivity”.
With “QVQLVESGGGLVQAGGSLRLSCAASGSIFGSYAMGWYRQAPGKERELVAAITSGGSTHYADSVKGRFTISRDNAKNTVYLQMNSLKPEDTAVYYCNAQALRLFWRYDYWGLGTQVTVSS” the “polyreactivity (PSR sort gate)” value was “low polyreactivity”.
For “QVQLVESGGGLVQAGGSLRLSCAASGSIFGSYTMGWYRQAPGKERELVAAISLGGGSTYYADSVKGRFTISRDNAKNTVYLQMNSLKPEDTAVYYCAAVQIVSGTYDYYWGQGTQVTVSS”, the “polyreactivity (PSR sort gate)” value was “low polyreactivity”.
In the case of “QVQLVESGGGLVQAGGSLRLSCAASGSIFGSYVMGWYRQAPGKERELVAAISKSGGRTYYADSVKGRFTISRDNAKNTVYLQMKSLKPEDTAVYYCAVLPRVKDGTGGDYWGHGTQVTVSS”, the “polyreactivity (PSR sort gate)” value is reported as “high polyreactivity”.
In the case of “QVQLVESGGGLVQAGGSLRLSCAASGSIFGTNAMGGYRQAPGKETELVADISGSGGTTYYADSVKGRFTISRDNAKNTVDLQMNSLKPEDTAVYYCAAKGRAGYGYTAYANDYGGQGTQVTVSS”, the “polyreactivity (PSR sort gate)” value is reported as “low polyreactivity”.
With “QVQLVESGGGLVQAGGSLRLSCAASGSIFGTNAMGWYRPAPGKERELVAAINWSGGTTYYADSVKGRFTISRDNAKNTVYLQMNSLKPEDTAVYYCNADIEKSYNYWGQGTQVTVSS” the “polyreactivity (PSR sort gate)” value was “low polyreactivity”.
In the case of “QVQLVESGGGLVQAGGSLRLSCAASGSIFGTNAMGWYRQAPGKERELVAAISLSTGSTYYADSVKGRFTISRDNAKNNVYLQMNSLKPEYTAVYYCAAYYVTPIYYYWGQGSQVTVSS”, the “polyreactivity (PSR sort gate)” value is reported as “low polyreactivity”.
With “QVQLVESGGGLVQAGGSLRLSCAASGSIFGTNAMGWYRQAPGKERELVAVISDGGSTYYADSVKGRFTISRDNAKNTVYLQMNSLKPEDTAVYYCNTPLESPFYSRFGTTESDHWGQGTQVTVSS” the “polyreactivity (PSR sort gate)” value was “low polyreactivity”.
In the case of “QVQLVESGGGLVQAGGSLRLSCAASGSIFGTNTMGWYRQAPGKEREFVAVITGSTTSTYYADSVKWRFTISRDNANNTVYLQMNSLIPEDTAVYYCADEPGSRSYGGDYWGQGTQVTVSS”, the “polyreactivity (PSR sort gate)” value is reported as “high polyreactivity”.
In the case of “QVQLVESGGGLVQAGGSLRLSCAASGSIFGTNTMGWYRQAPGKERELVAAIRLSDSSTYYADSVKGRFTISRDNAKNSFYLQMNSLKPVDTAVYYCAVDYRAYHYYRYDYWGQGTQVTVSS”, the “polyreactivity (PSR sort gate)” value is reported as “low polyreactivity”.
With “QVQLVESGGGLVQAGGSLRLSCAASGSIFGTYAMGWYRQAPGKEREFVAAISWSDGSTYYADSVKGRFTISRDNAKNTVYLQMNSLNPEDTAVYYCAVRRVGSIYIDRYIYVVADYDYWGQGTQVTVSS” the “polyreactivity (PSR sort gate)” value was “low polyreactivity”.
With “QVQLVESGGGLVQAGGSLRLSCAASGSIFGTYAMGWYRQAPGKERELVAAITGNGGRTYYADSVKGRFTISRDNAKNTVYLQMNSLKPEDTAVYYCAKATSRRGFYYWGQGTQVTVSS” the “polyreactivity (PSR sort gate)” value was “high polyreactivity”.
